Results taken from article doi:10.1101/2020.11.19.389494, “The structural mechanism underlying the antithetic effect of homologous RND1 and RhoD GTPases in plexin regulation” (bioRxiv, 2020).

Molecular target: T1, human RhoD (residues 8-194) with the Q75L mutation, bound to GMP-PNP (human, UniProt O00212 8-194, Q75L)
T1 construct: Loaded with the GTP analogue GMP-PNP and Mg2+ before crystallisation; His6 tag removed with human rhinovirus 3C protease; also called GMP-PNP-loaded RhoD; source: E. coli BL21 (DE3), purified (HisTrap, Resource Q, Superdex 75); not shown: His6, N-terminal, cleaved
T1 sequence (looked up): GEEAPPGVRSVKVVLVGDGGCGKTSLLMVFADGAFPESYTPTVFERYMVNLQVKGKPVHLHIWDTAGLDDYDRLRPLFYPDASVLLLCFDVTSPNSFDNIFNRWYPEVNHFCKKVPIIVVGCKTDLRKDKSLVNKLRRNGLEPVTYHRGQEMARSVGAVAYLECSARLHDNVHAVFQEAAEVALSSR
Experiment: crystal structure; Plexin B2 (1274-1842) and GMP-PNP-loaded RhoD mixed at 1:1 molar ratio, 6 mg/mL total; crystals grown over a month at 20 °C in 0.2 M MgCl2, 22 % PEG3350, 100 mM MIB pH 6.8; plexin B2 degraded to the RBD in the drops; 3.1 Å, molecular replacement
Settings: both partners purified

B1: mouse plexin B2 Rho GTPase binding domain (RBD) (domain or fragment, UniProt B2RXS4 1463-1565, looked up)
chain: EYAPLTVSVIVQDEGIDAIPVKVLNCDTISQVKEKIIDQVYRTQPCSCWPKPDSVVLEWRPGSTAQILSDLDLTSQREGRWKRINTLMHYNVRDGATLILSKV
notes: Plexin B2, mouse; Expressed as the intracellular region without the juxtamembrane region (residues 1274-1842); it degraded in the crystallization drops and the crystal held only the RBD, of which residues 1463-1509 and 1510-1565 are described in the model; In the crystal two RBD chains form a domain-swapped dimer (swap between residues 1509 and 1510), which the authors regard as a crystallization …
binding result: binds
